Assay results from patent US9926369B2, “Methods for treating hepatocellular cancer by administering an anti-Ang-2 antibody” (Regeneron Pharmaceuticals, Inc., priority 2009, dated 2018).

Columns and labels:
[1] = molecular target: T1, Human Ang-2FD-hFc binding to hTie-2-mFc (Homo sapiens, UniProt O15123); experiment: ELISA blocking of human Ang-2FD-hFc binding to hTie-2-mFc; type: biochemical; settings: 16.67 nM antibody; 2 nM Ang-2FD-hFc
T1 sequence (O15123 282-496): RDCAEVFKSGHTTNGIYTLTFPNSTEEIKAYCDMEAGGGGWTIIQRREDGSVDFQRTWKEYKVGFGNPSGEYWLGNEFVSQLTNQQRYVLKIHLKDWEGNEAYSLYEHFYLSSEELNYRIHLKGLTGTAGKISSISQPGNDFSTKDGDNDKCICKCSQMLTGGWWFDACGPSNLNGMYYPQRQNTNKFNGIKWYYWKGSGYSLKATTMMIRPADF
Experimental: Tie-2 is a natural receptor for Ang-2. Anti-Ang-2 antibodies were tested for their ability to block Ang-2 binding to human Tie-2 (hTie-2). hTie-2-mFc (a chimeric construct consisting of human Tie-2 conjugated to mouse IgG; SEQ ID NO:525) was coated onto 96-well plates at a concentration of 2 μg/ml and incubated overnight followed by washing four times in wash buffer (PBS with 0.05% Tween-20). The plate was then blocked with PBS (Irvine Scientific, Santa Ana, Calif.) containing 0.5% BSA (Sigma-Aldrich Corp., St. Louis, Mo.) for one hour at room temperature. In a separate plate, purified anti-Ang-2 antibodies, at a starting concentration of 50 nM, were serially diluted by a factor of three across the plate. Human, mouse or monkey Ang-2FD protein conjugated to human IgG (Ang-2FD-hFc) were added to final concentrations of 2 nM, 8 nM, or 2 nM respectively and incubated for one hour at room temperature. The antibody/Ang-2FD-Fc mixture was then added to the plate containing hTie-2-mFc and incubated for one hour at room temperature. Detection of Ang-2FD-hFc bound to hTie-2-mFc protein was determined with Horse-Radish Peroxidase (HRP) conjugated to a-human IgG antibody (Jackson Immuno Research Lab, West Grove, Pa.) and developed by standard colorimetric response using tetramethylbenzidine (TMB) substrate (BD Biosciences, San Jose, Calif.). Absorbance was read at OD450 for 0.1 sec.

[2] = molecular target: T2, hAng-2 WT binding to Tie-2 (Homo sapiens, UniProt O15123); experiment: ELISA blocking of full-length hAng-2 WT binding to hTie-2-mFc; type: biochemical
T2 construct: Full-length human Ang-2 or Ang-1 protein conjugated to 6× histidine tag (R&D Systems, Minneapolis, Minn.); purchased R&D Systems
T2 sequence (O15123 19-496): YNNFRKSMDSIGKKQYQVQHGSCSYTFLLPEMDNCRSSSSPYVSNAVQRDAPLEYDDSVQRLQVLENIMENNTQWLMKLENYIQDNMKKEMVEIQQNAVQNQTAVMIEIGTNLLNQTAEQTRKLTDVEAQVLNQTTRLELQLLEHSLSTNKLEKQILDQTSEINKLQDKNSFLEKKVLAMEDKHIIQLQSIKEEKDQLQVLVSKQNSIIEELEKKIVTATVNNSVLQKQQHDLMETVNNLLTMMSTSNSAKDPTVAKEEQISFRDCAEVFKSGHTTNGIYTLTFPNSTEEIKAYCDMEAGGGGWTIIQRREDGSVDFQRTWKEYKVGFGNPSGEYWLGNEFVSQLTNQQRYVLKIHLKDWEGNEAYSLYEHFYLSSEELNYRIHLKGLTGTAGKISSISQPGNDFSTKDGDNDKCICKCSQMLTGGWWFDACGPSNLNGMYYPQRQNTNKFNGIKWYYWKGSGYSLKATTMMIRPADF
Experimental: The ELISA experiments shown in this Example were conducted in a similar manner to the experiments of Example 5. Briefly, hTie-2-mFc (a chimeric construct consisting of human Tie-2 conjugated to mouse IgG; SEQ ID NO:525) was coated onto 96-well plates at a concentration of 2 μg/ml and incubated overnight followed by washing four times in wash buffer (PBS with 0.05% Tween-20). The plate was then blocked with PBS (Irvine Scientific, Santa Ana, Calif.) containing 0.5% BSA (Sigma-Aldrich Corp., St. Louis, Mo.) for one hour at room temperature. In a separate plate, purified anti-Ang-2 antibodies and control constructs, at a starting concentration of 300 nM, were serially diluted by a factor of three across the plate. Full-length human Ang-2 or Ang-1 protein conjugated to 6× histidine tag (R&D Systems, Minneapolis, Minn.) were added to a final concentration of 0.6 nM and incubated for one hour at room temperature. The antibody/antigen mixture was then added to the plate containing hTie-2-mFc and incubated for one hour at room temperature. Detection of Ang-2-His or Ang-1-His bound to hTie-2-mFc protein was determined with Horse-Radish Peroxidase (HRP) conjugated to a-Penta-His antibody (Qiagen, Valencia, Calif.) and developed by standard colorimetric response using tetramethylbenzidine (TMB) substrate (BD Biosciences, San Jose, Calif.). Absorbance was read at OD450 for 0.1 sec. […]

Dimeric Monkey Ang-2FD = experiment: Surface plasmon resonance binding to dimeric monkey Ang-2FD conjugated to human IgG1; design: species or system Macca fascicularis; settings: SPR, room temperature
Dimeric Monkey Ang-2FD, sequence (as listed by the source): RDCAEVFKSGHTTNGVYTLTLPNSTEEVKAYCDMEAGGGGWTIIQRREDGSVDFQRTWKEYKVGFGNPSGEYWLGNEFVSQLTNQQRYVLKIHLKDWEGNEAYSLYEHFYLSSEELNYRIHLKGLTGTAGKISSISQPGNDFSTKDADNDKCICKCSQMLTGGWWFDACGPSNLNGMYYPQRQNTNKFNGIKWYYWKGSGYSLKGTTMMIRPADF
Experimental: Equilibrium dissociation constants (KD values) for the binding of selected purified Ang-2 antibodies to dimeric fibrinogen-like domain of human (SEQ ID NO: 519), mouse (Mus musculus; SEQ ID NO: 520) and monkey (Macca fascicularis; SEQ ID NO: 521) Ang-2 (Ang-2FD) conjugated to human IgG1 (SEQ ID NO:528) were determined by surface kinetics using a real-time biosensor surface plasmon resonance assay. Antibody was captured on a goat anti-mouse IgG polyclonal antibody surface, a goat anti-human κ polyclonal antibody (Southern Biotech, Birmingham, Ala.) surface or a goat anti-human IgG polyclonal antibody (Jackson Immuno Research Lab, West Grove, Pa.) surface created through direct amine coupling to a BIACORE™ CM5 sensor chip to form a captured antibody surface. Varying concentrations (ranging from 50 nM to 6.25 nM) of protein were injected at 100 μl/min over captured antibody surface for 90 seconds. Antigen-antibody binding and dissociation were monitored in real time at room temperature. Kinetic analysis was performed to calculate KD and half-life of antigen/antibody complex dissociation.
The above experiment was repeated using selected purified anti-Ang-2 antibodies cloned onto human IgG1.

## H1H685P: human anti-Ang-2 antibody, HCVR/LCVR SEQ ID NOs 18/20; also referred to as mAb1 [Antibody H1H685P]
[1]
  Percent Blocking of Ang-2FD Binding to Tie-2, Human Ang-2FD-hFc: 93.8%
[2]; 0.6 nM hAng-2-His, read-out: (1) Blocking hAng-2 WT to Tie-2 IC50
  IC50: 0.129 nM
[2]; hAng-1 blocking IC50 divided by hAng-2 blocking IC50
  (3) Fold Difference in hAng-1 Blocking IC50 Compared to h-Ang-2 Blocking IC50: >2318
Dimeric Monkey Ang-2FD
  Kd: 0.0994 nM
